For two substances, T cell expansion after weekly restimulation with HLA-A*0201^+ pp65-transduced Caco-2 tumor cells and Granzyme B density near the immunological synapse (fold reduction) results are on record in patent US20160008398A1.

Test [1] deals with CMV pp65 presented by HLA-A*0201.
The target of test [2] is 4-1BB (human) (UniProt Q07011).

In the case of “CMV pp65-specific T lymphocytes (cells without a defined receptor)”, the T cell expansion after weekly restimulation with HLA-A*0201^+ pp65-transduced Caco-2 tumor cells in test [1] stood at 209 fold.
In test [2], “dsRed-monomer-4-1 BBL fusion protein (from UniProt P41273) (ligand)” gave a Granzyme B density near the immunological synapse (fold reduction) of 2.02.
